Measured values: IntAct's records for PubMed 12221107

B1: Low density lipoprotein receptor adapter protein 1 (Homo sapiens), Q5SW96 (parent)
chain: MDALKSAGRALIRSPSLAKQSWGGGGRHRKLPENWTDTRETLLEGMLFSLKYLGMTLVEQPKGEELSAAAIKRIVATAKASGKKLQKVTLKVSPRGIILTDNLTNQLIENVSIYRISYCTADKMHDKVFAYIAQSQHNQSLECHAFLCTKRKMAQAVTLTVAQAFKVAFEFWQVSKEEKEKRDKASQEGGDVLGARQDCTPSLKSLVATGNLLDLEETAKAPLSTVSANTTNMDEVPRPQALSGSSVVWELDDGLDEAFSRLAQSRTNPQVLDTGLTAQDMHYAQCLSPVDWDKPDSSGTEQDDLFSF
B2: AP-2 complex subunit beta (Homo sapiens), P63010 (parent)
chain: MTDSKYFTTNKKGEIFELKAELNNEKKEKRKEAVKKVIAAMTVGKDVSSLFPDVVNCMQTDNLELKKLVYLYLMNYAKSQPDMAIMAVNSFVKDCEDPNPLIRALAVRTMGCIRVDKITEYLCEPLRKCLKDEDPYVRKTAAVCVAKLHDINAQMVEDQGFLDSLRDLIADSNPMVVANAVAALSEISESHPNSNLLDLNPQNINKLLTALNECTEWGQIFILDCLSNYNPKDDREAQSICERVTPRLSHANSAVVLSAVKVLMKFLELLPKDSDYYNMLLKKLAPPLVTLLSGEPEVQYVALRNINLIVQKRPEILKQEIKVFFVKYNDPIYVKLEKLDIMIRLASQANIAQVLAELKEYATEVDVDFVRKAVRAIGRCAIKVEQSAERCVSTLLDLIQTKVNYVVQEAIVVIRDIFRKYPNKYESIIATLCENLDSLDEPDARAAMIWIVGEYAERIDNADELLESFLEGFHDESTQVQLTLLTAIVKLFLKKPSETQELVQQVLSLATQDSDNPDLRDRGYIYWRLLSTDPVTAKEVVLSEKPLISEETDLIEPTLLDELICHIGSLASVYHKPPNAFVEGSHGIHRKHLPIHHGSTDAGDSPVGTTTATNLEQPQVIPSQGDLLGDLLNLDLGPPVNVPQVSSMQMGAVDLLGGGLDSLVGQSFIPSSVPATFAPSPTPAVVSSGLNDLFELSTGIGMAPGGYVAPKAVWLPAVKAKGLEISGTFTHRQGHIYMEMNFTNKALQHMTDFAIQFNKNSFGVIPSTPLAIHTPLMPNQSIDVSLPLNTLGPVMKMEPLNNLQVAVKNNIDVFYFSCLIPLNVLFVEDGKMERQVFLATWKDIPNENELQFQIKECHLNADTVSSKLQNNNVYTIAKRNVEGQDMLYQSLKLTNGIWILAELRIQPGNPNYTLSLKCRAPEVSQYIYQVYDSILKN
partner: B1 chain

Variants of: B1
Conditions: with clh1_bovin CLTC

Row | Variant | effect of a mutation on the interaction
1 | L212A;L213A | disrupting interaction strength
2 | D214A;E216A | disrupting interaction strength

Variants of: B1
Conditions: with ap2b1_human AP2B1, P63010

Row | Variant | effect of a mutation on the interaction
3 | R266A | disrupting interaction strength

Variants of: B2
Conditions: with arh_human LDLRAP1, Q5SW96

Row | Variant | effect of a mutation on the interaction
4 | E849A | disrupting interaction strength
5 | E902A | decreasing interaction strength
